What all share (assay): solid phase ELISA, antibody coated, FCGR titrated
For experiment [1], the target named is T1, low affinity immunoglobulin gamma fc region receptor IIIA (FCGR3A) (CD16a) (human, UniProt P08637 17-208).
T1 construct: Bought recombinant human protein (Santa Cruz Biotechnology); also called FCR3A

Experiment [2] concerns the target T2, low affinity immunoglobulin gamma fc region receptor IIA (FCGR2A) (CD32) (human, UniProt P12318 34-217).
T2 construct: Bought recombinant human protein (Santa Cruz Biotechnology); also called FCGR2A receptor
T2 sequence: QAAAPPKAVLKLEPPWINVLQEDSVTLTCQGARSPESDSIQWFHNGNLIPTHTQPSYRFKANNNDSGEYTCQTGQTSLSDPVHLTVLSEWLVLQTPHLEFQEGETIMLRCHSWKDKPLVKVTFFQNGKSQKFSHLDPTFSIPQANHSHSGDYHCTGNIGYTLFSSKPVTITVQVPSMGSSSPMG

The target in experiment [3] is T3, high affinity Fc region of IgG receptor IA (FCGR1A) (CD64) (human, UniProt P12314 16-292).
T3 construct: Bought recombinant human protein (Santa Cruz Biotechnology)

For experiment [4], the target named is T4, low affinity immunoglobulin gamma fc region receptor IIIB (FCGR3B) (CD16b) (human, UniProt O75015 17-200).
T4 construct: Bought recombinant human protein (Santa Cruz Biotechnology); also called FCR3B
T4 chain: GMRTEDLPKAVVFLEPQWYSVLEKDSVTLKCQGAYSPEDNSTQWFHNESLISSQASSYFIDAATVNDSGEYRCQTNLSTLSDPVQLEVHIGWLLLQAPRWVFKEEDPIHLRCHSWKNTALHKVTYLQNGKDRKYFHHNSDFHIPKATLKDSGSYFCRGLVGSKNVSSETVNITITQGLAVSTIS

T1 sequence (P08637 17-208 limits assumed): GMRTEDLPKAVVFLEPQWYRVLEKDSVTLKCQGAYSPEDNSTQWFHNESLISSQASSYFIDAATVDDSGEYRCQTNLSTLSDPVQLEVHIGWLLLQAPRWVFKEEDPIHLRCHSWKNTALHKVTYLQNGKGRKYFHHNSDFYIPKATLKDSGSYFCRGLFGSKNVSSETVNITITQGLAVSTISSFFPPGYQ
T3 sequence (P12314 16-292 limits assumed): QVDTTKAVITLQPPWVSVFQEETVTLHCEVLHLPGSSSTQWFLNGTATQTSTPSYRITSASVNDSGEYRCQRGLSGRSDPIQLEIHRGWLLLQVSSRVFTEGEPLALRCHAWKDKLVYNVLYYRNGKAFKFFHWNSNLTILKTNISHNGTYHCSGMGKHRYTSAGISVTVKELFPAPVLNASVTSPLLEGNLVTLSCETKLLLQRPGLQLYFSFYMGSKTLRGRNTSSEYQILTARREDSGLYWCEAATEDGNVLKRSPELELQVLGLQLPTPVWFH

B1: JB5 antibody (antibody)
heavy: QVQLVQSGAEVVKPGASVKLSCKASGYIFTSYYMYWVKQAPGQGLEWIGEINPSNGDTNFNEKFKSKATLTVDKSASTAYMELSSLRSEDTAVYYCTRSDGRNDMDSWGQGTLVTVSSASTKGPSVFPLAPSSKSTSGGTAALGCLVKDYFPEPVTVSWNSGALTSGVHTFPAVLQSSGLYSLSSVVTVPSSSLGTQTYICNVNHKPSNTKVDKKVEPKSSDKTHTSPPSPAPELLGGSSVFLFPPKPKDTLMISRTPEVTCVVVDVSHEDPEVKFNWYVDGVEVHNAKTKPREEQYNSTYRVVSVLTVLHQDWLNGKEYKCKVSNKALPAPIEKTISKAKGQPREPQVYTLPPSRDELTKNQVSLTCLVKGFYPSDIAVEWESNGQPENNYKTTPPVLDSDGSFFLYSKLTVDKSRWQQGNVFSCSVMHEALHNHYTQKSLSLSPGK
light: DIVLTQSPATLSVSPGERATISCRASQRVSSSTYSYMHWYQQKPGQPPKLLIKYASNLESGVPARFSGSGSGTDFTLTISSVEPEDFATYYCQHSWEIPPTFGGGTKLEIKRTVAAPSVFIFPPSDEQLKSGTASVVCLLNNFYPREAKVQWKVDNALQSGNSQESVTEQDSKDSTYSLSSTLTLSKADYEKHKVYACEVTHQGLSSPVTKSFNRGEC
notes: The text mostly prints the name as 'JBS'; also called JBS (OCR spelling of JB5 in the text); mutant JBS antibody
B1: the binding result in experiment [1], in experiment [2], in experiment [3] and in experiment [4] was “no binding (tested: FCGR titrated from 5 µg/ml)” each time.

B2: hu5c8 antibody (antibody, human IgG1)
heavy: not shown
VL: DIVLTQSPATLSVSPGERATISCRASQRVSSSTYSYMHWYQQKPGQPPKLLIKYASNLESGVPARFSGSGSGTDFTLTISSVEPEDFATYYCQHSWEIPPTFGGGTKLEIK
notes: Humanized 5c8, IgG1; no full light chain entry is named for it; also called parental antibody hu5c8; hu5c8-IgG1
Regarding B2, the binding result in experiment [1] and in experiment [4] was “no binding (tested: FCGR titrated from 5 µg/ml)” throughout.

The values are drawn from patent publication US20240043549A1 (ALS THERAPY DEVELOPMENT INSTITUTE, published 2024).
